Assay: soluble on expression in E. coli; label from the status in PepcDB or PDB records

Sequence	soluble on expression in E. coli
MAHHHHHHMLNVVQATRMSKKQEVKAYGPNVKKGDLVYGVVHIFASFNDTFVHVTDMSGRETYVKVTGGMKVKADRDESSPYAAMMAAQDVVARCKECGINALHVKMRAVGGVRTKSPGPGRPGRPPRARPRRDEDWPHRGCHPDPDRLHPPQGFPPWSPPVRSLRPRVLRTAQQSELTLVTICWFPCVCDLLSFYCREEKKHRPQITEAR	not soluble
MAHHHHHHMLPFSYRVLMRGVSAVSGALSVALQHRALAGTTRSFSSSRPVWLAPAAPTKQAPPAMGGDTDAEETHPDFQPRMVSSDLAQDEIAMIKKDIDDTIRDEDVVVFIKGVPEAPMCAFSKRMIDVMEALGVEYTSFDVLAHPVVRSYVKEVSEWPTIPQLFVKGEFAGGVDIILKMAESGDLQMLLDQKSIKHRDTKP	soluble
MAHHHHHHMLQRSFVVRWVPRYIRQVPRVRQKKEQRDAVAMGRSKAPSKRRAECSAVSERDGGVARAAQAKRLEITEEGSTVLESPVSDVSRLLLRKAETLLDSWQKLNMTMTISGSRSDSLMGMKNSSSSQKRDAVAFMAQTEVFAVVKGMIHLSTPHEGSLNRCEEDNKHDSLRQNAFQEYRSTNIISGMVVIPDEATNDAVNYLAQIGRHRVGKVQDKVASLDDSFPISSAIFSLHEVVVFLELYNAMDCEDGELLLRLLEELRRIVFSTEKEIRTENHVLRECEEGVIPRLLLTLSSLGIVEENVLQRIVAINDGSILSRATIARYPESDLIRLLVAFNRFGLHHEPCFHVTAKTLRRNSLRNPLKSFCRNAVNCRVDAAPLGDGEKRSRIPSSMAGLTMNELLEALTAIALSLCREREVVKLLAATIVTAVEDEEYMRCSTKEKAKTREEDLGLLRTLQVHRAAKVCEQMDMPQPSLAHLLHRLSIRYGGLLADGGDVSLSPERVGFYDFITADLVKARCS	not soluble
MAHHHHHHMLQRSLARLCAAAQRQGNKALAAEGRSFALVNREVTAIKEHIQSLVTNTNNEVLDHAGKYVLAAGGKLMRPALVVLMAHAMLPLDVSAHLLEEPIGSLDEVTPGTILPFLRLAEVTELIHTASLLHDDVIDNTDTRRGRPALHKVYDAKRAVLAGDYMLARASFYIATLQVPRIVILMTTALEELTSGELMQMDGCFDIPRYEQKSFCKTASLIANSLASTAVLAGPGNEALEQTAFDFGKHLGIAFQILDDCLDITGDEKMLGKPKLVDMKEGIATIPVLLVARRNAKVAEMVCRRFAEPGDAEFCLEAVEKEGAVAEAMHRADEHCRLGLESLHKLHHSPARDALESALSMVMNRKS	not soluble
MAHHHHHHMLRFTVPALVVFQNAYAPRVLNRMTPDRMELTMLILKERKKKVRYLGSNFQGFNDRVHLFNAQGGVRRGTRYIIETHHNRIQFKHRSRNNSMVDVRAVKMAGSQYDSIGNYTRMTWDNSLCTTNLLSDPNFKRHFKNMPKEETIGVLEEWGVRYILLDEIRKP	not soluble
MAHHHHHHMLRKTNLFLFAASRALMSGGSSHGPTPYQDKSYPVQPHNLNELQQPPDSWRKSPIMSKLMDQSLPVYDDVVTGVGRLYWQEPARVWHLFEADDTLMLEEHDREEWNDRPYVAVNHLYEPPIGSEERPIRVEGTGNPGDQQIVLCFGNCAPHVPQSNYYMMMKGYSKTKCPMCQQWFYVHNRPWLVMHPDWTDEPAADEGPAYTFAEIEAEFDRDFHEFGVYLNAE	not soluble
MAHHHHHHMLRLCLALRSASVQRKPHLFRIDLTSKHTPGHLYLADRAVKSTAADPCFVCLDNAMTCQTVDSNAAVVLRSCMTKGRELFQYGRMRFQGMSAALVFRHNHLVFQGIGDASVQALEMSLQHKDVFALLGGISPHENIPEWARAVEKAIAEGDVEYVAEEMLLQLRCPTEGCTSVVAKISKFSAGLPEPPNYSHAM	not soluble
MAHHHHHHMMRCSRGCRRQLRPYYNLPSKSDHGRKMTGFLTPYRHWMWKQNELWRNVHEAQFEHLRKVYKRQWLESFRVNADEYIYKYNITKAAQLAQWEYEMQAQEKKRLEAKQMTEGRQALKKKHLDLLREFHERQFFFWYERASERLQSMNLIQYIPQSRVQEHIERELDKYVAGKSEAYPLNFVGQMPLVEDREGNIVEVPEGLLTNHVSEHPESTVKPHQPHESTSVSVEEQLLRTMASAREESLEEWIDDSRALSETIDDISREEEQRDEDTRVARSMEETDNEREISRRMYIDRGKTGSKAIFRRPTLSETDGGSASIPVGGVAASPADTSAPMRRRKKGKLDKAHALQEQQDAMIARMSAKSLKDGESSISIVKRGEIATSRGRIRDKAAIPTQEVLMQKPELAAGSVPNARISFKDKVDQLYHRGKYKQKKEDDNNPNEDL	not soluble
MAHHHHHHMMYSRLFHESLGIVIISPSRSSASPALVIADAFYSAMRLQVMLAMPFVQPRFASIFRLLLRAVPLLPPFMATFTFRRCTSDLSRRSAMRCFTARLQLLTFETLLCGSHGVLPPPARLAAACARAKEEFALQCSTSAPPPTKLTTAVVATHLLHNNLRDAAAVLASHPCQQQVLEEVRDYVRQHPGVFSVSTLTGMLEEARCVSPAAVATFLRAAVDEFLRGSSAASTVGDEATAWDAQRENLRSLVLRHIRFYPACVSFLLGSLCAVSRGCAGDREDVIEVMQIAMRERSMNPRDFGGVLDVVWKSREPRRVAMMWAWMQHTSACWDVRAASIAIMAFSELHQMDEAVACIQRLAEADGDPTIDAQVAFVRFLGVRTPSLLRYAAQLVLHWHPSGERLWRGEPQAVGMELVKICCACGERKWAVEMLEQMVATNASVPAELEAFMLRPGAAALGEHYSASVAASKTLQELFIDVPLRLPNLGEQPALVGLLLSLGMVTNRLPEVYDALEKASLTPANFQDALDCFVTGSVVKAASPVAVLACVREAGVRTGHKVPKEMESWLQLATEM	not soluble
MAHHHHHHMNAKNDASESLLCGGEDISALVVDLGFSTTKIGHNQEDTPRVFLRSTCGEDVSPDGGSPRGDPSPKLKFPLNLHNPKEHLRIKPLFERNPVDNTTHMNSDVFERILRYGIEGVESKRVFHCSDEIPTPVKLGGLNLKIEEHPILLSEENIHNHRVRAEMTEILFETFNIPAVYFAKKAKLTAFSLGRSNALVIDIGGSSLNVTPVYEGYVLQRNSLQFGVGGDYFDRLIYGMLRKDQVRVVPYYEQGRGGSGGLGSASASCSPSCSFSGATHHPNVHSSYEEEAILDVIRYMKESICKVRVAHQSSANKKSETTSGGLKNGKEVEPTGQTHNGAKNVNAPKWQTGQTEEEEFFELPDGVKIKTDKYRYDIAEELFRAVPSAHNFNGLPEAIVNCIISSDVDIRKELLQAIIVTGGSSLFPGLVDRLYNSLREKECFSQSIKMKILNMTSSVECLYSSWLGGSILASLGTFQQLWVSRAEYDDAGHAIVSDRCF	not soluble
MAHHHHHHMNEPDAALEGVVDLTSNNFDSSVGKDVAALVEFYAPWCGHCKNLVPEFAKLGRAAAGAKDKVLIAKVDATAQKDLATRFEVNGYPTILFFPAGSQKPEKYSEGREAKAFVSYLNNQIKGLNLFLPREHKYVMALDQSNFDKVALDEGKDAFVLFYAPWCGHCKRLHPSFESLAKVYQNEKDLIIANVDADDKSNSEVTKRYKVEGYPTLVFFPKGNKGNPVNYEEGRTLDDMIKFVNERTGKKRTSSGDFDKTVGVDETVTNLMKEMAQSSKNKEERERLLAQIQQAVSPKALGEGAMHYIRIATNVLENGHEYISKEHERVGRLLKGSLTGPKRDSLTIRFNILSAIKGE	soluble
MAHHHHHHMNHVRHALDMDNEYTMVLDIGTIRRPAAQHRSESFMAASTTEWETKVERAERLSLLEGKKGCCYFSLYPEDVSAAFHEDAKSFPDVFSVEDAFVHCARLNLPMGEVAALLPAIPTETAEQVMHNLAEKCVIASPQSLAMTFLGEMSARLPVDLDIASFIIGGCNVGLGEAAVAIGSVAALPFRSITPLTYSSVPWNEATTWSREKYAGDIARHSDLLADTLVFIEWLKLRARGESTAEFLNTILVQEFKFVKIEGLMKYIREQLTNYVFLDRFDTLELLEDVSTSVQENSTIFLFLQAVALARRAAFIRDAGHLNEKDRYASMAFVRTSKRLMPHNYIPSSIKWDTGRILIPVILKNSTNILAGLFSLIHTPYFFASLLLLYPYVEYSKPVITDKGRVVYFGVSCNRQMKRFMVSIEEAAQILDFREKINLALSCMQALRTLSHPILKTKFLLILKKHDRLFDVERLHKNIRSQLLELVTELNVTEHQGSFETFATHCTAPKELLPMTDTPAMDVSVLRRFVDGTLWDSLPTPGSVVKPRAASFAGTPSTLPSAPLISTNDEDDDEEVEIIQDSYFMRHGPLIEDDDDD	not soluble
MAHHHHHHMNIFKNIYNTEMMSNNNTVDVNMMDNNPAARLEELRTIMKKNKIDVYILINSDEHNSEIINEKDKKIVKITNYSGADGILIVTKDKPILYVNALYELQAMNELDQNLFTLRISRIDNRDEIFETISSLEFNTIAFDGKNTSVVFYEKLRKALLNAYPKKKIVEKIIYNNNFDDVNKKDDENVLNFLVLEKSLVEIKDYPVNNKTLYIHDRKYNGACAGEKIDKLKQSLMYDIKNVDNLLLSELDEIAYLLNLRGYDYQYSPLFYSYLLFQFDREEQDFSKIVFFTTVKNLPADVKNLLEINKVIVKEYEEIVPYLRDVVIPSIPKHNDDNPDFKKYDISLSPYINLMIYKLFDRKNVLLQNSPVVKMKAVKNDVEIDNMKQAHILDGLALLQFFHWCEQKRKTKELFNETEMSLRHKVDYFRSTKKNFIFPSFSTISASGPNAAVIHYECTDKTNATIKPAIYLLDSGGQYLHGTTDVTRTTHFGEPTAEEKRIYTLVLKGHLRLRKVIFASYTNSSALDFIARENLFNNFMDYNHGTGHGVGLTLNVHEGGCSIGPVGGAPLKKNMVLSNEPGYYMKDKFGVRIENMQYVISKEITDTTEYLSFDDLTMYPYEKKLLDFSLLTNQEIKELNEYHTTIRNTLLPLVKQSPQEYGESVEKYLIEITEPIAIHNN	soluble
MAHHHHHHMNKSTVAGELRNIFSQGTNAYTVELYNAFYRDGTLSLVMEYMDWGNLEELIAICPTIPEPACAYIASQILHALQILHTKANHPTETDKKGRRQIHRDIKPANVMLSKNGVVKLTDFGIAASAETIGVNSFVGTATYMSPERIQGRNYSTPSDIWSVGVLTAQLLLGRFPFSAAEGGFMALLRQVTECCSLSLVDQCACSQKAEDFINHCICRNPDDRSTAIELLQHEWIVQNASNGKDVLTGLLGTVGEPAASSESDNS	not soluble
MAHHHHHHMNPHQVNPSDQIAELVVESPHFSFNCAHFIAFKGFRETLHGHNYNVSLKLRGYIQQDGYVIDFSILKEKLKRVCKQLDHHFILPMYSDVLNIQMLEDNFKIICEDKSEYSFPKRDCVQIPIKHSSTEEIGLYILNKIIEELGLPFLKARSVNYMEVTVSESPTQKATVHRNI	not soluble
MAHHHHHHMNRENLEELKILNLKNDKQPIYNFRCKHCNYVLFNDNEIIKHDFKISKIKKNYGNSCTSIFIEKKEWILTENKMKGVLNCPNCNIKLGKWSWTGICCSCGYLQIPAFMINSSNVDRMNISKTV	soluble
MAHHHHHHMNRSASLPSASPSLSTMRTITVALCASSKKHQQSFDALREAGKLHNERLLLMRQHSASRQAGCGDVSGEAGEASTAAPQEGCASGSRGMSSHSRSRRTSRATSEVLAHPARSRSTTEGSLSCAALSNCLFRFLSLNYDAQRHRMVLCIDGDIKEVHQSSAAAFAQDGSKANAQQSPSVDEHAGTDSTVRGEGEPSQSALMDEVDVVLHKVATFGTPVAIRALHQWYNGAQKRRSRQRRAPLIVVDPLEKVQLLMTRSMLCKLLNNVGDDGQPIALIPRTFVWDCPSDAACRHARRTNGSSAATPLGIHSFTSMEEQEARANGTAAEHWWIAKPDESTGAAFTHHLVMWLTRDADVSVPTAVKAALPTEACRFILQELYVYALPVVLKVYCVGSHISVKVNPTVSLLNYLWEHTRGSTLADVPVAMDSQDKAFFSTVASVSTSRSQPTLSAMTSSTDDDALPATSPTMNATNAAGAPPSPTELPQGTSSESASAEQSLIAWESMVVPVDYWNAFLAPGTPAYTAISKLAQDLSGDAGVGLSLYGFDLVLVPQYLAHTYQRKGARGIGRTEGATVRYEGVAPSLSKVAHRSADTAKPVQRIPASHSMRKLPGAGASAPPSPVSQLFRASDMFDLASGAPTSLLLDSIPVVIDVNYFPGYKGVAEVNQHMLELIALKSMHLQDGSSNRAWHADTATGAEAKKRRCSMM	not soluble

— the DeepSol protein solubility set
